As a reminder, the Kd is the equilibrium constant for the complex coming apart.

Experiment [1] concerns the target T1, cynomolgus monkey PCSK9, V5- and 6xHis-tagged (cynomolgus monkey, UniProt A0A7N9D9N8 150-747).
T1 construct: also called cPCSK9-V5-6xHIS; cPCSK9; not shown: V5 tag and 6xHis tag
The experiment in a line: BIAcore solution equilibrium; PCSK9 mixed with 21B12.1, free PCSK9 measured on immobilised 21B12. (In general: In SPR one partner is held on a chip, and binding of the other changes the refractive index at the surface.)

For experiment [2], the target named is T1, cynomolgus monkey PCSK9, V5- and …. The experiment in a line: BIAcore SPR; antibody amine-coupled to CM5 chip, PCSK9 injected as analyte; pH 7.4.
Method: Briefly, the surface plasmon resonance experiments were performed using Biacore 2000 optical biosensors (Biacore, GE Healthcare, Piscataway, N.J.).
Antibody binding kinetic parameters including kₐ (association rate constant), kd (dissociation rate constant), and KD (dissociation equilibrium constant) were determined using the BIA evaluation 3.1 computer program (BIAcore, Inc. Piscataway, N.J.).
For experiment [3] the target is unchanged. Put plainly: KinExA solution equilibrium; free antibody captured on PCSK9-coated beads; cPCSK9 concentration adjusted to 50% active. Background: In KinExA the mixture passes briefly over coated beads that capture the unbound partner.
From the text: (§1) Equilibrium dissociation constant (KD) were obtained from nonlinear regression of the two sets of competition curves using a one-site homogeneous binding model. The KinExA® Pro software was employed in the analysis.
Experiment [4] has the same target. The experiment is described as above. This is another data set of the same source.
From the text: as §1
For another experiment, the target named is T2, PCSK7 (R&D Systems) (UniProt Q16549 142-667, limits assumed).
T2 sequence (looked up): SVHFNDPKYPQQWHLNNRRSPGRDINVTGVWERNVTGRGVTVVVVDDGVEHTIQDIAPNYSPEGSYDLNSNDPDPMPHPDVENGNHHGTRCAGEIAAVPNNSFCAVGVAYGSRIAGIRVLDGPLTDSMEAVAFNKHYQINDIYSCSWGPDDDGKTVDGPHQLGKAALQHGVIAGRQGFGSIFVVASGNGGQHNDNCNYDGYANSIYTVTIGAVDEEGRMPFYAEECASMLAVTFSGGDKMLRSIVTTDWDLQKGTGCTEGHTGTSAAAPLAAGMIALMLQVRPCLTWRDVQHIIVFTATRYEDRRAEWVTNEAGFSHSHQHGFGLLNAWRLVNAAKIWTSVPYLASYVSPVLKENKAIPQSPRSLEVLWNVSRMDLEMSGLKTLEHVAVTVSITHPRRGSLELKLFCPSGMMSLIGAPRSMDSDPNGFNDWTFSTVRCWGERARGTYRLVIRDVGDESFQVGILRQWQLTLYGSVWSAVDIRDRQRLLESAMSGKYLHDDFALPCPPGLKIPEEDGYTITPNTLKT
The experiment in a line: competition ELISA: 11F1 (0.4 µg/mL) pre-incubated with soluble convertase, then binding to plate-captured biotinylated PCSK9. On the technique in general: In an ELISA, binding on a coated surface is turned into a signal by an enzyme label.

Another experiment has as its target T3, PCSK1 (R&D Systems) (UniProt P29120 111-753, limits assumed).
T3 sequence (looked up): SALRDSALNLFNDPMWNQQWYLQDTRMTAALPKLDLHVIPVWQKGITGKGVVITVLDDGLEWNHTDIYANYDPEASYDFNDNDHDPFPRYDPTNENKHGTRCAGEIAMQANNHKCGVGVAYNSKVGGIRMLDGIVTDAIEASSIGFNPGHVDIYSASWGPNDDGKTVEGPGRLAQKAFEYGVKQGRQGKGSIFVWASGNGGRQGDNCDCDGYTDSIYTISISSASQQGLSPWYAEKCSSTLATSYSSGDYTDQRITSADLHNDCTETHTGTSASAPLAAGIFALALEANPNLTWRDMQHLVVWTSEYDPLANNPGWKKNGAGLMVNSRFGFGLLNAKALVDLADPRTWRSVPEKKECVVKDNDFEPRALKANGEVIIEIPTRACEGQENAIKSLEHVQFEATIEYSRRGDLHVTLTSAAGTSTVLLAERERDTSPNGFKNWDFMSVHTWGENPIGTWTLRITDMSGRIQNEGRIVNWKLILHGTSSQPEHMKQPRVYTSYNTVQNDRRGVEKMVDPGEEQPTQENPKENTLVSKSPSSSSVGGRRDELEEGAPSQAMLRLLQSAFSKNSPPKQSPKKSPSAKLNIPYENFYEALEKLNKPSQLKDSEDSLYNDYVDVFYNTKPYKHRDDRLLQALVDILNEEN
The experiment is described as above.

B1: 21B12 anti-PCSK9 human IgG4 antibody (from hybridoma) (antibody, V domains shown)
VH: QVQLVQSGAEVKKPGASVKVSCKASGYTLTSYGISWVRQAPGQGLEWMGWVSFYNGNTNYAQKLQGRGTMTTDPSTSTAYMELRSLRSDDTAVYYCARGYGMDVWGQGTTVTVSS
VL: QSALTQPASVSGSPGQSITISCTGTSSDVGGYNSVSWYQQHPGKAPKLMIYEVSNRPSGVSNRFSGSKSGNTASLTISGLQAEDEADYYCNSYTSTSMVFGGGTKLTVLQ
notes: also called 21B12.1; 21B12 IgG4
For B1, the values for the Kd in experiment [1] and in experiment [2] were 0.011 nM and 0.36 nM, respectively.

B2: 16F12 anti-PCSK9 human IgG4 antibody (antibody, V domains shown)
VH: QVHLVESGGGVVQPGRSLRLSCAASGFTFNSFGMHWVRQAPGKGLEWVALIWSDGSDEYYADSVKGRFTISRDNSKNTLYLQMNSLRAEDTAVYYCARAIAALYYYYGMDVWGQGTTVTVSS
VL: QSVLTQPPSVSAAPGQKVTISCSGSSSNIGNNFVSWYQQLPGTAPKLLIYDYNKRPSGIPDRFSGSKSGTSATLGITGLQTGDEADYYCGTWDSSLSAYVFGTGTRVTVLQ
notes: also called 16F12.1; 16F12, anti-PCSK9 huIgG4
As for B2, the Kd in experiment [3] turned out to be 0.016 nM; in experiment [2] it was 0.87 nM.

B3: 31H4 anti-PCSK9 human IgG4 antibody (from hybridoma) (antibody, V domains shown)
VH: EVQLVESGGGLVKPGGSLRLSCAASGFTFSSYSMNWVRQAPGKGLEWVSSISSSSSYISYADSVKGRFTISRDNAKNSLYLQMNSLRAEDTAVYFCARDYDFWSAYYDAFDVWGQGTMVTVSS
VL: QSVLTQPPSVSGAPGQRVTISCTGSSSNIGAGYDVHWYQQLPGTAPKLLISGNSNRPSGVPDRFSGSKSGTSASLAITGLQAEDEADYYCQSYDSSLSGSVFGGGTKLTVLQ
notes: also called 31H4.1; 31H4 IgG4
Turning to B3, the Kd in experiment [4] came to 0.002 nM; in experiment [2] it was 0.19 nM.

B4: 11F1 anti-PCSK9 antibody (antibody, V domains shown)
VH: EVQLVESGGGLVQPGGSLRLSCAASGFTFSNYWMSWVRQAPGKGLEWVASIKQDGSEKYYVDSVKGRFAISRDNAKNSLFLQMNSLRAEDTAVYYCARDLVLMVYDIDYYYYGMDVWGQGTTVTVSS
VL: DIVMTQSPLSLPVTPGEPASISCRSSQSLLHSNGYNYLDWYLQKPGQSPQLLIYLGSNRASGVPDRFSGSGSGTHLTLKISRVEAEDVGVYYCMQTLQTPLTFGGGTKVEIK
notes: It was detected with anti-human Fc, so it is a whole human antibody
On to B4, for which the binding result with PCSK7 (R&D Systems) and with PCSK1 (R&D Systems) was “no binding (tested: 0 to 20 µg/mL)” throughout.
